{
  "source": "paper PMC8844826",
  "about": "(iScience, 2022)",
  "key": {"[1]": {"biological_target": "T1, full length PSD-95 (FL-PSD-95, 1-724) (human, UniProt P78352 1-724)", "T1 construct": "construct 32M3C-PSD-95 FL 1-724 from Zeng et al. (2016a); A PreScission 3C site follows the tags; For the arrays 0.1 uM of 1 uM was labelled with Alexa 633 (maleimide); also called PSD protein 95; 32M3C-PSD-95 FL; source: E. coli BL21-DE3-pLysS, purified (HisTrap, SEC)", "T1 sequence (P78352 whole entry)": "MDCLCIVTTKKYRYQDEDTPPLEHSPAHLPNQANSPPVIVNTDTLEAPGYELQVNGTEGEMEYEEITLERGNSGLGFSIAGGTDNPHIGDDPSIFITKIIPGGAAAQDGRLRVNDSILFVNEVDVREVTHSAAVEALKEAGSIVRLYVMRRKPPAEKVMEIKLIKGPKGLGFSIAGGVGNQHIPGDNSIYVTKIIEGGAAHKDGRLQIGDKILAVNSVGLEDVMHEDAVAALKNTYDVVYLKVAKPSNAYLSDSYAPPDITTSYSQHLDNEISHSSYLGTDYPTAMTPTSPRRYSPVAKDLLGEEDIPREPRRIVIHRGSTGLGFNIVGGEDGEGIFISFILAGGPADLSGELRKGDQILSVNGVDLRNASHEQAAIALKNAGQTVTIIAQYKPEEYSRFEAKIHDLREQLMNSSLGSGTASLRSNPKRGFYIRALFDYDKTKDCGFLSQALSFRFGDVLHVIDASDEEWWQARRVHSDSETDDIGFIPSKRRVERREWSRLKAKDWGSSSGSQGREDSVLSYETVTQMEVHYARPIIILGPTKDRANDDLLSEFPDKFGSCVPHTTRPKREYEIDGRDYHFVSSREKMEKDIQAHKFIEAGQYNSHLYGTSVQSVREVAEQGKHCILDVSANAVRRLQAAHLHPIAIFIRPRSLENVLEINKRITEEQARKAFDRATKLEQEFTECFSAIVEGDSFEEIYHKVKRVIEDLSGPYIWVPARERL", "assay": "fluorescence polarisation; saturation binding: increasing protein, fixed fluorescently labeled peptide; 50 mM Tris (pH 8.0), 300 mM NaCl, 10 mM EDTA, 1 mM TCEP; 20 min on ice", "details": "both partners purified"}, "GST-Arc 195-364 (rat)": {"biological_target": "T2, GST-Arc 195-364 (rat) (rat, UniProt Q63053 195-364)", "T2 construct": "rat Arc residues 195-364, Uniprot Q63053; GST is followed by a thrombin and a factor Xa site; the protein was eluted with glutathione and no cleavage is described; also called pGEX4T1-Arc 195-364; source: E. coli BL21-DE3-pLysS, purified (Glutathione Sepharose, SEC)", "T2 sequence (looked up)": "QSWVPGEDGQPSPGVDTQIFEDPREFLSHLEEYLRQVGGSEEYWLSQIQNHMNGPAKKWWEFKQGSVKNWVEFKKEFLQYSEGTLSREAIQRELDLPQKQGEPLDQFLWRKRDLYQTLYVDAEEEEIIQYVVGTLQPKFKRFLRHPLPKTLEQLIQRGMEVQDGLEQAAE", "assay": "fluorescence polarisation; saturation binding: increasing protein, fixed fluorescently labeled peptide; 50 mM Tris (pH 8.0), 300 mM NaCl, 10 mM EDTA, 1 mM TCEP; 20 min on ice", "details": "both partners purified"}},
  "note": "Ends that are not written are not given here. TAMRA = 5 (and 6)-carboxytetramethylrhodamine",
  "data": [
    {"binder": "{TAMRA}-GAITRIPSYRYRYQRR (added glycine between TAMRA and A222; also called TMR labeled Stg_(A222-R236); source: synthetic peptide (in-house))", "note": "[TAMRA-G-A222ITRIPSYRYRYQRR236 (fluorescently labeled Stg A222-R236 peptide)]", "values": [
      {"measurement": "Kd", "setting": "[1]", "result": "14.9 ± 3", "unit": "µM"},
      {"measurement": "Kd", "setting": "GST-Arc 195-364 (rat)", "result": "8.37 ± 1.25", "unit": "µM"}
    ]}
  ]
}
